Legend:
[1] = tested on: Human Arp8 (Δ1-33) (Homo sapiens); assay: fluorescence titration; details: 20 mM Tris pH 7.5, 150 mM KCl, 5% glycerol, 1 mM TCEP, 0.01% CHAPS, 0.01% octylglucoside, room temperature 20-30 min, labelled species 0.5-1 nM, protein …
[2] = tested on: Human Arp8 full-length (Homo sapiens); assay: fluorescence titration; details: 20 mM Tris pH 7.5, 150 mM KCl, 5% glycerol, 1 mM TCEP, 0.01% CHAPS, 0.01% octylglucoside, room temperature 20-30 min, labelled species 0.5-1 nM, protein …
[3] = tested on: Yeast Arp8 (Saccharomyces cerevisiae); assay: fluorescence titration; details: 20 mM Tris pH 7.5, 150 mM KCl, 5% glycerol, 1 mM TCEP, 0.01% CHAPS, 0.01% octylglucoside, room temperature 20-30 min, labelled species 0.5-1 nM, protein …
[4] = tested on: Yeast Arp8;Yeast Arp4;Actin (INO80 sub-complex I);Ino80 HSA domain (INO80 sub-complex I) (Saccharomyces cerevisiae;Saccharomyces cerevisiae;Saccharomyces cerevisiae;Saccharomyces cerevisiae); assay: fluorescence titration; details: 20 mM Tris pH 7.5, 150 mM KCl, 5% glycerol, 1 mM TCEP, 0.01% CHAPS, 0.01% octylglucoside, room temperature 20-30 min, labelled species 0.5-1 nM, protein …
[5] = tested on: Yeast Arp4 (Saccharomyces cerevisiae); assay: fluorescence titration; details: 20 mM Tris pH 7.5, 150 mM KCl, 5% glycerol, 1 mM TCEP, 0.01% CHAPS, 0.01% octylglucoside; room temperature 20-30 min; labelled species 0.5-1 nM, protein …
[6] = target: 207-bp nucleosome (Xenopus laevis); assay: other fluorescence titration; Arp constructs or sub-complex titrated (1 to 5000 nM) into fluorescently labelled histone complexes or nucleosomes kept at 0.5-1 nM, 40 µl in microplates; 20 mM Tris pH 7.5, 150 mM KCl, 5% glycerol, 1 mM TCEP, 0.01% CHAPS, 0.01% octylglucoside; room temperature, 20-30 min; apparent Kd and Hill coefficient from non-linear fit; quadruplicates
[7] = target: H2A–H2B dimer (Xenopus laevis) (UniProt P06897); assay: as above

Sequence of Homo sapiens Arp8 (Δ1–33) (Q9H981 34-624, stated change not applied): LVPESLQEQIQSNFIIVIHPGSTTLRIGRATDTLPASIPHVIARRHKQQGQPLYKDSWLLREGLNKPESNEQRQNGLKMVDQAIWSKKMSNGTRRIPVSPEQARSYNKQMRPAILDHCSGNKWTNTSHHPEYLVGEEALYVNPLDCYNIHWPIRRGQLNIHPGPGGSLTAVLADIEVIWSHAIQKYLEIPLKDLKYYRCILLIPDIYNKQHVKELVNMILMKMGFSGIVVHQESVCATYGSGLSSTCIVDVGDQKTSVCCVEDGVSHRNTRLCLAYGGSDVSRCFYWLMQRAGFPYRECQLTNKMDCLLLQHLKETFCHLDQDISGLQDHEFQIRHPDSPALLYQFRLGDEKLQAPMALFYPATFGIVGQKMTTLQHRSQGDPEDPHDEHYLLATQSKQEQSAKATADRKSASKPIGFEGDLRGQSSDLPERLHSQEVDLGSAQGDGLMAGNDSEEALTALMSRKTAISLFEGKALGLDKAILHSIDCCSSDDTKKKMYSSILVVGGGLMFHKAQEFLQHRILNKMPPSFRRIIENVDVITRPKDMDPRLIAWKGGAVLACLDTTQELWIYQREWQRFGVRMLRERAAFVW
Sequence of Full-length Homo sapiens Arp8 (Q9H981 whole entry): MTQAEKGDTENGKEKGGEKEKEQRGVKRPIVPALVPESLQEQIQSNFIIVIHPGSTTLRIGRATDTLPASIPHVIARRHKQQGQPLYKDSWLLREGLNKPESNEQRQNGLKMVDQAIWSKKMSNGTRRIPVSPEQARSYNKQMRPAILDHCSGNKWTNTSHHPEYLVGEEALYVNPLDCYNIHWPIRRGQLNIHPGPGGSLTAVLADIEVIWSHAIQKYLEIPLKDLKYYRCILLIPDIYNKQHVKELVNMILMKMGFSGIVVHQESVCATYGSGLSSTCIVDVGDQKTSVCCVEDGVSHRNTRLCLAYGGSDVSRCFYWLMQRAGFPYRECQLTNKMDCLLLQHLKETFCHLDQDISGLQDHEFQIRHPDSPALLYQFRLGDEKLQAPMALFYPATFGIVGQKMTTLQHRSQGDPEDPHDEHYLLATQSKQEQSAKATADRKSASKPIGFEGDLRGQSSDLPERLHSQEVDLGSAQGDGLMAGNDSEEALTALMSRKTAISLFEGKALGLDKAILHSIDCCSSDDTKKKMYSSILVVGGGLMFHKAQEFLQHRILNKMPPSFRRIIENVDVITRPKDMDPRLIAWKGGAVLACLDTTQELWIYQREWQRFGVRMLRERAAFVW

| Substance | Kd [6] [nM] | Kd [7] [nM] | further results |
| --- | --- | --- | --- |
| 30-bp DNA ('601' sequence linker DNA) |  |  | Kd ([1]; 5' C6 amine): 6330 nM; Kd ([2]; 5' C6 amine): 6940 nM; Kd ([3]; 5' C6 amine): 1920 nM; Kd ([4]; 5' C6 amine): 366 nM |
| 207-bp nucleosome |  |  | Kd [1]: 62.6 nM; Kd [2]: 51 nM; Kd [5]: 204 nM; Kd [3]: 314 nM; Kd [4]: 63.6 nM |
| Full-length Homo sapiens Arp8 (from UniProt Q9H981 1-624) (natural protein) | 51 | 555 |  |
| Homo sapiens Arp8 (Δ1–33) (from UniProt Q9H981 34-624) (domain or fragment) | 62.6 | 367 |  |
| Saccharomyces cerevisiae Arp4 (from UniProt P80428 1-489) (natural protein) | 204 |  |  |
| Saccharomyces cerevisiae Arp8 (from UniProt Q12386 1-881) (natural protein) | 314 | 1950 |  |
| Saccharomyces cerevisiae INO80 sub-complex I (Arp8–Arp4–actin-HSA) (from UniProt Q12386 1-881; P80428 1-489; P60010 1-375; P53115 462-685) | 63.6 | 853 |  |
